Data reported in patent US20200181195A1 (NEC, published 2020).

Key:
[1] = target: T1, HLA-A*02:01 molecule (HLA-A*02:01 gene product) (human); assay: flow cytometry, T2 cells + purified b2m, peptide dilution series, BB7.2 staining
T1 construct: MHC class I on T2 cells with added purified b2m
Experimental: (§1) Thereafter, the amount of fluorescence per cell was measured using a flow cytometer, and a dissociation constant Kd value was calculated using a method that was reported in a paper (Udaka et al., Immunogenetics, 51, 816-828, 2000) by the inventors of the present invention.

[2] = target: T2, HLA-A*02:06 molecule (HLA-A*02:06 gene product) (human); assay: flow cytometry, RA2.6 cells (RMAS + HLA-A*02:06), peptide dilution series, BB7.2 staining
T2 construct: whole, on cells; MHC class I on RA2.6 cells (mouse RMAS transfected with HLA-A*02:06); The light chain is not described
Experimental: Thereafter, the cells were cultured at 35° C. for 4 hours. […] A fluorescently labeled monoclonal antibody BB7.2, which specifically recognizes a peptide-binding HLA-A*02:06 molecule, was added thereto, incubation was carried out on ice for 20 minutes, and thus the cells were stained.
as §1

[3] = target: T3, HLA-A*24:02 molecule (HLA-A*24:02 gene product) (human); assay: flow cytometry, acid-stripped C1R-A24 cells + purified b2m, peptide dilution series, 17A12 staining
T3 construct: MHC class I on acid-stripped C1R-A24 cells; The endogenous peptide and b2m were removed, then purified b2m was added
Experimental: First, C1R-A24 cells were exposed to acidic conditions at a pH of 3.3 for 30 seconds, and thus an endogenous peptide that originally binds to the HLA-A*24:02 molecule, and a light chain β2m, which is associated with HLA class-I molecules in common, were dissociated and removed. After neutralization, a purified β2m was added to C1R-A24 cells, and the obtained product was added to a series of dilutions of the peptide and incubated on ice for 4 hours. Staining was carried out using a fluorescently labeled monoclonal antibody 17A12, which recognizes association (MHC-pep) of the three members, that is, a HLA-A*24:02 molecule, a peptide, and β2m, which had reassociated during the incubation.
Thereafter, the MHC-pep count per C1R-A24 cell (proportional to the intensity of fluorescence of the above-mentioned fluorescent antibody) was quantitatively measured using a fluorescence-activated cell sorter FACScan (Becton-Dickinson). A binding-dissociation constant Kd value between the HLA-A*24:02 molecule and the peptide was calculated from the average intensity of fluorescence per cell using a method that was reported in a paper (Udaka et al., Immunogenetics, 51, 816-828, 2000) by the inventors of the present invention.

Binder | Data of binding experiment (log Kd) [1] | Data of binding experiment (log Kd) [2] | Data of binding experiment (log Kd) [3]
GQDVTSVPV (Only the start position in MUC1 is printed; The end of the range follows from the length of 9 residues) [GQDVTSVPV (Seq. ID No. 11)] | -6.44 log Kd | -6.35 log Kd | –
TLAFREGTI (Only the start position in MUC1 is printed; The end of the range follows from the length of 9 residues) [TLAFREGTI (Seq. ID No. 9)] | – | -3.09 log Kd | -5.97 log Kd
HHSDTPTTL (Only the start position in MUC1 is printed; The end of the range follows from the length of 9 residues) [HHSDTPTTL (Seq. ID No. 7)] | – | – | -5.87 log Kd
FLGLSNIKF (Only the start position in MUC1 is printed; The end of the range follows from the length of 9 residues) [FLGLSNIKF (Seq. ID No. 1)] | -5.39 log Kd | -4.39 log Kd | -7.07 log Kd
AASRYNLTI (Only the start position in MUC1 is printed; The end of the range follows from the length of 9 residues) [AASRYNLTI (Seq. ID No. 5)] | -4.81 log Kd | -3.82 log Kd | -6.15 log Kd
AFREGTINV (Only the start position in MUC1 is printed; The end of the range follows from the length of 9 residues) [AFREGTINV (Seq. ID No. 4)] | – | – | -5.83 log Kd
STGVSFFFL (Only the start position in MUC1 is printed; The end of the range follows from the length of 9 residues) [STGVSFFFL (Seq. ID No. 10)] | -5.12 log Kd | -5.21 log Kd | -5.17 log Kd
LQRDISEMF (Only the start position in MUC1 is printed; The end of the range follows from the length of 9 residues) [LQRDISEMF (Seq. ID No. 6)] | – | -4.26 log Kd | -6.65 log Kd

Now from value to binder:

Data of binding experiment (log Kd) [1] | Data of binding experiment (log Kd) [2] | Data of binding experiment (log Kd) [3] | Binder
-4.74 log Kd | -5.66 log Kd | – | FSAQSGAGV (Only the start position in MUC1 is printed; The end of the range follows from the length of 9 residues) [FSAQSGAGV (Seq. ID No. 12)]
-3.9 log Kd | -5.63 log Kd | -7.24 log Kd | SVPVTRPAL (Only the start position in MUC1 is printed; The end of the range follows from the length of 9 residues) [SVPVTRPAL (Seq. ID No. 2)]
-4.55 log Kd | -5.76 log Kd | -5.93 log Kd | GVPGWGIAL (Only the start position in MUC1 is printed; The end of the range follows from the length of 9 residues) [GVPGWGIAL (Seq. ID No. 3)]
– | -3.98 log Kd | -7.07 log Kd | SFFFLSFHI (Only the start position in MUC1 is printed; The end of the range follows from the length of 9 residues) [SFFFLSFHI (Seq. ID No. 8)]
